Experimental data: article PMC3814058 (Bioscience Reports, 2013)
No end group written: not given here.

B1: GFP–STIM1K+LC (GFP–STIM1K with a leucine and cysteine insertion after residue 666), oxidized dimer (domain or fragment, human, UniProt Q13586-1 662-685, looked up)
chain: GEETDLCSSPGRKKFPLKIFKKPLKK
modifications: not fully specified; inserted cysteine oxidized (84% dimerization)
notes: STIM1, human, residues 662–685 with Leu and Cys inserted after Asp666; The methods describe only the plasmid of the +LC–P675A–P682A form (pMS781); also called GFP–STIM1K dimer; oxidized GFP–STIM1K+LC; source: E. coli BL21 (DE3), purified, dialysed overnight against DTT-free HK buffer; not shown: GFP, N-terminal, kept
B2: GFP–STIM1K+LC–P675A–P682A, oxidized dimer (domain or fragment, human, UniProt Q13586-1 662-685, looked up)
chain: {GFP}-GEETDLCSSPGRKKFALKIFKKALKK
modifications: also: disulfide-linked dimer via inserted cysteine
notes: STIM1, human, residues 662–685 with Leu and Cys inserted after Asp666, P675A and P682A; also called pMS781; GFP-STIM1K dimer with both prolines mutated; source: E. coli BL21 (DE3), purified, dialysed overnight against DTT-free HK buffer; not shown: GFP, N-terminal, kept

Biological target: the molecule itself
Test: non-reducing SDS/PAGE; overnight dialysis at 4°C against non-reducing (DTT-free) HK buffer, non-reducing sample buffer, 65°C 5 min, Coomassie stain; disulphide-linked dimer

Protein	stoichiometry N
B1	2
B2	2
